Measured values reported in patent publication US20130309248A1.

Columns and labels:
[1] = target: H3 HA antigen (A/Brisbane/10/2007) (influenza A virus (H3)); experiment: BLI (Octet RED), biotinylated HA on streptavidin sensor, 1:1 model
[2] = target: recombinant H3 HA (A/Wisconsin/67/2005) (influenza A virus (H3N2)); experiment: as above
[3] = target: full-length recombinant H1 HA (A/New Caledonia/20/1999) on PER.C6 cells (influenza A virus (H1N1)); experiment: FACS, IgG 5 µg/ml, HA-expressing PER.C6 cells; untransfected MFI 4
[4] = target: full-length recombinant H3 HA (A/Wisconsin/67/2005) on PER.C6 cells (influenza A virus (H3N2)); experiment: as above
[5] = target: full-length recombinant H7 HA (A/Netherlands/219/2003) on PER.C6 cells (influenza A virus (H7N7)); experiment: as above

**Q.** What does the source list for Fab fragment of CR8020?
**A.** Kd [1]: 8.9 nM; koff [1]: 0.00143 s⁻¹; kon [1]: 181000 M⁻¹ s⁻¹; Kd [2]: 11.2 nM; koff [2]: 0.00208 s⁻¹; kon [2]: 203000 M⁻¹ s⁻¹

**Q.** For CR8020 (antibody), which MFI [3] is on record?
**A.** Its MFI is 3 MFI.

**Q.** What about the MFI [4] of the same substance?
**A.** The MFI was 657 MFI.

**Q.** And the MFI [5]?
**A.** The MFI was 140 MFI.

**Q.** Which results are given for Fab fragment of CR8043?
**A.** Kd [1]: 0.3 nM; koff [1]: 8.69e-05 s⁻¹; kon [1]: 312000 M⁻¹ s⁻¹; Kd [2]: 0.3 nM; koff [2]: 9.86e-05 s⁻¹; kon [2]: 408000 M⁻¹ s⁻¹

**Q.** With CR8043 (antibody) as the substance, how does the MFI [3] read?
**A.** The MFI was 4 MFI.

**Q.** What about the MFI [4] of the same substance?
**A.** The MFI was 646 MFI.

**Q.** What about the MFI [5] of the same substance?
**A.** The MFI was 11 MFI.
